Test results: the supplement of paper PMC12764529
± gives the half width of the 95% confidence interval.

Legend:
[1] = folding stability dG unfold from trypsin proteolysis; higher = more stable
Summary of the method: (§1)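 Designed mini-proteins with no cysteine and under 80 residues were kept only if AlphaFold2 dimer inter-PAE was above 15. In a PA-tagged cDNA display construct, they were digested with trypsin and chymotrypsin and then sequenced. K50 was inferred by Bayesian fitting of counts, and unfolding free energy was derived per protease or combined against a sequence-predicted unfolded-state K50 and a shared folded-state K50.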

[2] = folding stability dG unfold (combined trypsin and chymotrypsin); higher = more stable
Summary of the method: as §1

[3] = folding stability dG unfold from chymotrypsin proteolysis; higher = more stable
Summary of the method: as §1

| Sequence | folding stability dG unfold [1] [kcal/mol] | folding stability dG unfold [2] [kcal/mol] | folding stability dG unfold [3] [kcal/mol] |
| --- | --- | --- | --- |
| SMKPGDKLLIRIRLPPVKVEREYFDKDGKLVKKETKEVKEVELVIELSPEELEKLRELLKELGFEVEILPSA [r9_167_TrROS_Hall] | 2.83 ± 0.16 | 2.5 ± 0.16 | 2.4 ± 0.055 |
| SMKPGDVKVIEIEVEYPWPPGDPEKAKEKVRDLVNSIMQEHGYDVDIPVEIEPRDGRYRVEVPIIIRPPNSA [r9_889_TrROS] | 0.0547 ± 0.069 | -0.409 ± 0.25 | -0.771 ± 0.36 |
| SMKPGETVTLEVVIRVKKENMTLEEIAEEVANAIKALLPPGAKITIEVVDIEYDEETDEVYVKLKITIENSA [r9_706_TrROS_Hall] | 4.17 ± 0.28 | 3.01 ± 0.32 | 2.64 ± 0.23 |
| SMKPPVKVRIRIYNPETGEEIATIEIEFLPDGTVKVTIEIDGKKYEIEMSLDELLEALKKLPFKIVEIEPSA [r9_470_TrROS_Hall] | 3.72 ± 0.12 | 3.57 ± 0.1 | 3.35 ± 0.064 |
| SMKRVLILVPDPSVDKEELIEELKKKGFEDIEVVDSEEELKKLPENIDVVVIVRDGEVEVREVPPVEALKSA [r9_750_JUSTAS] | 0.698 ± 0.037 | 0.706 ± 0.11 | 0.585 ± 0.1 |
| SMKTLIVEGMTPEEIRALAEEAAKKGEEVEIEIVVKDNEEIKEALEEAGVEVEEVEDPETKEKVLKVTVKSA [r9_759_TrROS_Hall] | 0.254 ± 0.044 | 0.327 ± 0.14 | 0.412 ± 0.072 |
| SMKVEIPPELVEAIEKALAEKKPGEEVEIEFEHPDGPLIRVRIEKDGRVRIEVFEHPDKLIAEFEFEPKPSA [r9_132_TrMRF] | 3.31 ± 0.095 | 3.14 ± 0.077 | 2.98 ± 0.087 |
| SMKYRITLTITKGDEDIVVEIETESEEEAKEKFKKAISPELLKALPEDAKVEITVEPEPLVIPEPGVPLPSA [r9_111_JUSTAS] | 0.465 ± 0.038 | 0.995 ± 0.062 | 1.22 ± 0.12 |
| SMLEEVLERIEAMPPGSVVKVTLTFPDGTKRTETLKLSAEEVKEKLEKIKKENPDIKIEVKVEVYSTEEESA [r9_37_JUSTAS] | 3.33 ± 0.39 | 4.39 ± 0.42 | 4.05 ± 0.36 |
| SMLEKIEKAIESGNDGILVPLKLTPEEFKKVRAYLEELGFTLLSEEELAVGPVPVYELTFKVNTKTGEAASA [r9_498_JUSTAS] | 1.88 ± 0.066 | 2.17 ± 0.13 | 2.44 ± 0.1 |
| SMLNIPSDWKVITIKLEYKVEPGVSEEEVKEKAIEELKKKFPKNTKIEVEVTPDPETGTVTIKITIIIKKSA [r9_657_JUSTAS] | 2.15 ± 0.062 | 1.84 ± 0.1 | 1.38 ± 0.056 |
| SMMKIRIVNKETKEEIEEIEIEKNEDGSYTIKIKIKKNGKTYEIEIKLPKGMKIEELLKKLGIEKAEIEPSA [r9_492_TrROS_Hall] | 1.55 ± 0.049 | 1.79 ± 0.11 | 1.98 ± 0.11 |
| SMMYLVKIKVRNKETGELVEEIELVVESEEEAEKIAEELAEELGLEVEVEVKRISPEELEDPEILKELLESA [r9_864_TrROS_Hall] | 2.77 ± 0.13 | 3.27 ± 0.23 | 3.53 ± 0.088 |
